Here are results for one molecule from US20240352110A1.

Test [1] concerns the target Rf IgM contained in native samples from patients with elevated Rf levels. Kind of test: Elecsys µ-capture (anti-IgM-Ru detection); native sample RF_3_12, Rf 457 IU/mL.
For test [2] the target is unchanged. Briefly: Elecsys µ-capture (anti-IgM-Ru detection); native sample B6, Rf 386 IU/mL.
The target is the same in test [3]. Briefly: Elecsys µ-capture (anti-IgM-Ru detection); native sample D8, Rf 572 IU/mL.
Test [4] has the same target. Kind of test: Elecsys µ-capture (anti-IgM-Ru detection); native sample RF_3_13, Rf 1492 IU/mL.
The target is the same in test [5]. Briefly: Elecsys µ-capture (anti-IgM-Ru detection); native sample RF_2_31, Rf 457 IU/mL.
Test [6] shares this target. Kind of test: Elecsys µ-capture (anti-IgM-Ru detection); native sample RF-3-2, Rf 401 IU/mL.
The target is the same in test [7]. Kind of test: Elecsys µ-capture (anti-IgM-Ru detection); native sample RF_3_10, Rf 322 IU/mL.
The target is the same in test [8]. Kind of test: Elecsys µ-capture (anti-IgM-Ru detection); native sample E8, Rf 339 IU/mL.
For test [9] the target is unchanged. Briefly: Elecsys µ-capture (anti-IgM-Ru detection); native sample RF_3_5, Rf 402 IU/mL.
Test [10] has the same target. Kind of test: Elecsys µ-capture (anti-IgM-Ru detection); native sample RF_2_32, Rf 655 IU/mL.
For test [11] the target is unchanged. Kind of test: Elecsys µ-capture (anti-IgM-Ru detection); native sample C9, Rf 640 IU/mL.
For test [12] the target is unchanged. Kind of test: Elecsys µ-capture (anti-IgM-Ru detection); native sample RF_3_8, Rf 402 IU/mL.
Test [13] shares this target. Briefly: Elecsys µ-capture (anti-IgM-Ru detection); native sample E2, Rf 423 IU/mL.
For test [14] the target is unchanged. Kind of test: Elecsys µ-capture (anti-IgM-Ru detection); native sample RF-3-4, Rf 321 IU/mL.
For test [15] the target is unchanged. Kind of test: Elecsys µ-capture (anti-IgM-Ru detection); native sample RF-3-11, Rf 383 IU/mL.
Test [16] has the same target. Kind of test: Elecsys µ-capture (anti-IgM-Ru detection); native sample A5, Rf 466 IU/mL.
Test [17] has the same target. Briefly: Elecsys µ-capture (anti-IgM-Ru detection); native sample RF_3_9, Rf 439 IU/mL.
For test [18] the target is unchanged. Briefly: Elecsys µ-capture (anti-IgM-Ru detection); native sample RF_3_6, Rf 371 IU/mL.
Test [19] shares this target. Kind of test: Elecsys µ-capture (anti-IgM-Ru detection); native sample RF_3_1, Rf 430 IU/mL.
The target is the same in test [20]. Kind of test: Elecsys µ-capture (anti-IgM-Ru detection); native sample RF_2_33, Rf 377 IU/mL.
Test [21] shares this target. Kind of test: Elecsys µ-capture (anti-IgM-Ru detection); native sample D4, Rf 566 IU/mL.
The target is the same in test [22]. Briefly: Elecsys µ-capture (anti-IgM-Ru detection); native sample RF_3_3, Rf 394 IU/mL.
Test [23] shares this target. Kind of test: Elecsys µ-capture (anti-IgM-Ru detection); native sample RF_3_7, Rf 318 IU/mL.

B1: 21F12 F(ab′)2 fragment (protein)
VH: EVQLQQSGPELLKPGASVKISCKASGFTFTDYTMHWMKQSHGKSLEWIGGINPNSGGTIYNEKFKDKATLTVDKSSRTAYMELRSLTSEDSAVYFCTRGVYDGYFYWGQGTLVTVSA
VL: DVVMTQTPLSLPVSLGDQASISCRSSQSLVYSNGNTFLHWYLQKPGQSPKLLIYKVSTRFSGVPDRFSGSGSGSDFTLKISRVEAEDLGIYFCSQTTHAPFTFGSGTKLAIR
For B1, the Elecsys counts in test [1] amounted to 5670 counts; in test [2], 103000 counts; in test [3], 242000 counts; in test [4], 4740 counts; in [5], 27300 counts; in [6], 282000 counts. Further, the Elecsys counts in test [7] worked out at 8620 counts; in test [8], 118000 counts; in test [9], 10400 counts; in [10], 4220 counts; in test [11], 8240 counts; in test [12] it was 6820 counts. Also, the Elecsys counts in test [13] was determined as 102000 counts; in test [14] it was 99600 counts; in test [15], 69300 counts; in [16], 11600 counts; in test [17], 14500 counts; in [18], 24500 counts. Also, the Elecsys counts in [19] was determined as 19700 counts; in test [20], 9430 counts; in [21], 13300 counts; in test [22], 5850 counts; in [23], 7580 counts.
